IntAct's records for PubMed 39243984

B1: Mothers against decapentaplegic homolog 4 (Homo sapiens), Q13485 (parent)
chain: MDNMSITNTPTSNDACLSIVHSLMCHRQGGESETFAKRAIESLVKKLKEKKDELDSLITAITTNGAHPSKCVTIQRTLDGRLQVAGRKGFPHVIYARLWRWPDLHKNELKHVKYCQYAFDLKCDSVCVNPYHYERVVSPGIDLSGLTLQSNAPSSMMVKDEYVHDFEGQPSLSTEGHSIQTIQHPPSNRASTETYSTPALLAPSESNATSTANFPNIPVASTSQPASILGGSHSEGLLQIASGPQPGQQQNGFTGQPATYHHNSTTTWTGSRTAPYTPNLPHHQNGHLQHHPPMPPHPGHYWPVHNELAFQPPISNHPAPEYWCSIAYFEMDVQVGETFKVPSSCPIVTVDGYVDPSGGDRFCLGQLSNVHRTEAIERARLHIGKGVQLECKGEGDVWVRCLSDHAVFVQSYYLDREAGRAPGDAVHKIYPSAYIKVFDLRQCHRQMQQQAATAQAAAAAQAAAVAGNIPGPGSVGGIAPAISLSAAAGIGVDDLRRLCILRMSFVKGWGPDYPRQSIKETPCWIEIHLHRALQLLDEVLHTMPIADPQPLD

Variants of: B1
Settings: with smad3_human SMAD3, P84022
smad3_human SMAD3, P84022, sequence (P84022 whole entry, looked up): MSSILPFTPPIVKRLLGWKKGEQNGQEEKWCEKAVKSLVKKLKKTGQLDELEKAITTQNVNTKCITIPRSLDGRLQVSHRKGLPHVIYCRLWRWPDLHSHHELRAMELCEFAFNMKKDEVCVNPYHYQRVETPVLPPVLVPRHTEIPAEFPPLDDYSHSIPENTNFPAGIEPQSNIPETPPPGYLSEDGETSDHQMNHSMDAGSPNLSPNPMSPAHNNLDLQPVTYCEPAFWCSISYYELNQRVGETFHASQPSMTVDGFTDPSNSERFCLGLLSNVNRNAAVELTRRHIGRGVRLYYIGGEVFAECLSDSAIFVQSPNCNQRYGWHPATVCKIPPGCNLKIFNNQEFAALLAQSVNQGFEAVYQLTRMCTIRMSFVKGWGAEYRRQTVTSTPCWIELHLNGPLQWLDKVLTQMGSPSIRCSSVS

effect of a mutation on the interaction | Variant
decreasing interaction strength | R361H
decreasing interaction strength | R361C

Variants of: B1
Settings: with smad3_human SMAD3, P84022
Remark: another data set of the same source

effect of a mutation on the interaction | Variant
increasing interaction strength | I500V
